The values below are quoted from earlier work in doi:10.1101/2025.11.30.690581.

For one data set, the target named is Lys66 (UniProt position 148, FTKKMKENAKK). Nature of the data set: stability. The following applies: apparent pKa of the native-state ensemble in the reference Δ+PHS background.
In a further data set the target is Lys92 (UniProt position 174, RGLAYKYADGK). Nature of the data set: stability. Conditions: apparent pKa of the native-state ensemble in the reference Δ+PHS background.

For orientation: pKa means the pH at which an ionisable group is half protonated. “Staphylococcal nuclease Δ+PHS V66K (reference protein with Lys-66) (Staphylococcus aureus; G50F;V51N;P117G;H124L;S128A;del44-49;V66K)”: the pKa with Lys66 is reported as 5.7.
“Staphylococcal nuclease Δ+PHS I92K (reference protein with Lys-92) (Staphylococcus aureus; G50F;V51N;P117G;H124L;S128A;del44-49;I92K)”: the pKa in the data set with Lys92 is listed as 5.2.
